Blank lines part the entries; values can stand above or below the molecule they belong to. Square brackets hold non-standard residues; d marks the D form. βAla = NCCC(=O)O; Sar = CNCC(=O)O
How the values were obtained:
[1] = reported by Presza et al. J Clin Invest. 2011; cited from earlier work
human ferroportin = target: T1, human ferroportin (Homo sapiens, UniProt Q9NP59); assay type: cell-based; conditions: Table 3
T1 construct: expressed in transfected cells
T1 sequence (Q9NP59 1-571): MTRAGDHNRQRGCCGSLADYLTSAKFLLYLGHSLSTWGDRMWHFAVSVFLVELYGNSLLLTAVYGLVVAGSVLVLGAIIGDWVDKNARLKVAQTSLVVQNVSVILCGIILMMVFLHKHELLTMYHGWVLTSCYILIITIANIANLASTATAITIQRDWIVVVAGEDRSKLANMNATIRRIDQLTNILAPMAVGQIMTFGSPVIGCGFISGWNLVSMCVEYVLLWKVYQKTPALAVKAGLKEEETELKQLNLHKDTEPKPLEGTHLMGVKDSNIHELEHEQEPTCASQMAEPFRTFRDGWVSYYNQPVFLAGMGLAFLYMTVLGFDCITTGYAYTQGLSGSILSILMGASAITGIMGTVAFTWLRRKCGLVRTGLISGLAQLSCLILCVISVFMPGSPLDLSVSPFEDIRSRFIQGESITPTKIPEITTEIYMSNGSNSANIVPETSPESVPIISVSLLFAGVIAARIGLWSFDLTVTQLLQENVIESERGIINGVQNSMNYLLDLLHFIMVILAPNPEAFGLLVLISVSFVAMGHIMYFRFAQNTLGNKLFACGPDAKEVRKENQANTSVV
Procedure: Peptide analogues were tested in vitro for induction of internalization of the human ferroportin protein. Following internalization, the […] are degraded. The assay measures a decrease in fluorescence of the receptor.
The cDNA encoding the human ferroportin (SLC40A1) was cloned from a cDNA clone from Origene (NM_014585). The DNA encoding the ferroportin was amplified by PCR using primers also encoding terminal restriction sites for subcloning, but without the termination codon. The ferroportin receptor was subcloned into a mammalian GFP expression vector containing a neomycin (G418) resistance marker in such that the reading frame of the ferroportin was fused in frame with the GFP protein. The fidelity of the DNA encoding the protein was confirmed by DNA sequencing. HEK293 cells were used for transfection of the ferroportin-GFP receptor expression plasmid. The cells were grown according to standard protocol in growth medium and transfected with the plasmids using Lipofectamine (manufacturer's protocol, Invitrogen). […] The cells were propagated and frozen in aliquots.
A retro inverse peptide is a peptide with a reversed sequence in all D amino acids. […] The EC50 of these reference compounds for ferroportin degradation was determined according to the activity assay described above.

[2] = target: T2, human ferroportin (SLC40A1) fused to GFP (human, UniProt Q9NP59 1-571); experiment: cell-based or functional assay
T2 sequence (looked up): T1 sequence (Q9NP59 1-571)

Molecule: Hy-DPhe-DIle-DCys-DIle-DPro-DPhe-DHis-DThr-DAsp-NH2 [RI-Mini Hepcidin]
activity in vivo [1]: highly active in vivo

Molecule: DTHCPIAIF [compound 473]
Ferroportin internalization assay EC50 (nM) (human ferroportin): Not Active

B2: CMPD No. 123 (peptide)
peptide: H-DTHFGCIIFGPRSKGWVCK-NH2
modifications: not fully specified (bridges); printed as Hy-DTHFGCIIFGPRSKGWVCK-NH2; cysteine pairing not given here
Potency EC50 [2]: > 10 µM

B3: CMPD No. 125 (peptide)
peptide: H-DTHFRCIIFGPRSKGWVCK-NH2
modifications: not fully specified (bridges); printed as Hy-DTHFRCIIFGPRSKGWVCK-NH2; cysteine pairing not given here
Potency EC50 [2]: > 10 µM

Results, then the molecule that gave them:

Potency EC50 [2]: > 10 µM
B1: CMPD No. 127 (peptide)
peptide: H-DTHF[Sar]CIIFGPRSKGWVCK-NH2
modifications: not fully specified (bridges); printed as Hy-DTHF-[Sarc]-CIIFGPRSKGWVCK-NH2; cysteine pairing not given here

Potency EC50 [2]: > 10 µM
B4: CMPD No. 129 (peptide)
peptide: H-DTHF[βAla]CIIFGPRSKGWVCK-NH2
modifications: not fully specified (bridges); printed as Hy-DTHF-[β-Ala]-CIIFGPRSKGWVCK-NH2; cysteine pairing not given here

Potency EC50 [2]: > 10 µM
B5: CMPD No. 131 (peptide)
peptide: H-DTHFKCIIFGPRSKGWVCK-NH2
modifications: not fully specified (bridges); printed as Hy-DTHFKCIIFGPRSKGWVCK-NH2; cysteine pairing not given here

Potency EC50 [2]: > 0.3 µM
B6: CMPD No. 205 (peptide)
peptide: DTHFPCIKFKPRSKGWVCK
modifications: not fully specified; IVA (isovaleric acid) on side chain of Lys 10; C-terminal amide

Source: patent US20200017566A1 (priority 2014, published 2020)
